Results reported in the supplement of paper PMC10899765.

What follows are sequences tested on MCF10A (assay: 5+ nucleoli phenotype percent effect (relative to siNT 0% and siKIF11 100%); higher = more cells with five or more nucleoli). Details: 20 nM; 72 h.
Protocol: (§1)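 After 72 h, cells were fixed and stained with Hoechst and anti-fibrillarin, and nucleoli per nucleus were counted with CellProfiler. Values are plate-adjusted percent effect for the one-nucleolus and 5+ nucleoli phenotypes, normalised to siNT (0%) and to the positive controls siNOL11 or siKIF11 (100%), as the mean of biological triplicates. Percent viability is the nuclei count relative to siNT.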
For UACUUGGAAAGGCAUCAGUUG [hsa-miR-890], the “5+ nucleoli phenotype percent effect” value was -34.1%. With AGCCGCGGGGAUCGCCGAGGG [hsa-miR-3648] the “5+ nucleoli phenotype percent effect” value was 19.7%. With AAAGUAGCUGUACCAUUUGC [hsa-miR-562] the “5+ nucleoli phenotype percent effect” value was 57%. With GGUGGGCUUCCCGGAGGG [hsa-miR-4417] the “5+ nucleoli phenotype percent effect” value was 35.5%. For “UUCCACUGCCACUACCUAAUUU [hsa-miR-6509-3p]”, the “5+ nucleoli phenotype percent effect” value was -18.4%. For ACUGGACUUGGAGUCAGGA [hsa-miR-378e], the “5+ nucleoli phenotype percent effect” value was -3.63%. For UGAGCCCUGUCCUCCCGCAG [hsa-miR-1233-3p], the “5+ nucleoli phenotype percent effect” value was 7.25%. With AGGUGCUCCAGGCUGGCUCACA [hsa-miR-3907] the “5+ nucleoli phenotype percent effect” value was -22.2%. “CGGCCCCACGCACCAGGGUAAGA [hsa-miR-874-5p]” was tested, and the “5+ nucleoli phenotype percent effect” value was 38.1%. In the case of “GAAAUCAAGCGUGGGUGAGACC [hsa-miR-551b-5p]”, the “5+ nucleoli phenotype percent effect” value is reported as 40.3%. In the case of “GUGAGUAGUGGCGCGCGGCGGC [hsa-miR-6869-5p]”, the “5+ nucleoli phenotype percent effect” value is reported as -16.7%. In the case of UUUGGUCCCCUUCAACCAGCUA [hsa-miR-133b], the “5+ nucleoli phenotype percent effect” value is reported as -11.4%. For “UAAAAACUGCAAUUACUUUUA [hsa-miR-548aj-3p]”, the “5+ nucleoli phenotype percent effect” value was 35.3%. In the case of “CCCUGCUGCCUUCACCUGCCAG [hsa-miR-6893-3p]”, the “5+ nucleoli phenotype percent effect” value is reported as -2.09%. AUCUGACCUGAUGAAGGU [hsa-miR-4256] was tested, and the “5+ nucleoli phenotype percent effect” value was 5.64%. For “AGUGGCACAUGUUUGUUGUGAG [hsa-miR-891a-3p]”, the “5+ nucleoli phenotype percent effect” value was -11.2%. For UUCAAGUAAUUCAGGUG [hsa-miR-1297], the “5+ nucleoli phenotype percent effect” value was 45.2%. CGUGUUCACAGCGGACCUUGAU [hsa-miR-124-5p] was tested, and the “5+ nucleoli phenotype percent effect” value was -28.6%. With GCCCUGACCUGUCCUGUUCUG [hsa-miR-4732-3p] the “5+ nucleoli phenotype percent effect” value was 21.5%. GGAGGCGCAGGCUCGGAAAGGCG [hsa-miR-3197] was tested, and the “5+ nucleoli phenotype percent effect” value was 13.6%. In the case of UGAUGAUACAGGUGGAGGUAG [hsa-miR-3682-3p], the “5+ nucleoli phenotype percent effect” value is reported as -7.38%. For “UGUGACUUCUCCCCUGCCACAG [hsa-miR-6820-3p]”, the “5+ nucleoli phenotype percent effect” value was -7.76%. GGUCCAGAGGGGAGAUAGGUUC [hsa-miR-198] was tested, and the “5+ nucleoli phenotype percent effect” value was 5.19%. AGGUAGAAUGAGGCCUGACAU [hsa-miR-4650-3p] was tested, and the “5+ nucleoli phenotype percent effect” value was -12.9%. With CACAUUACACGGUCGACCUCU [hsa-miR-323a-3p] the “5+ nucleoli phenotype percent effect” value was -33.7%. In the case of “AACUCCAAACACUCAAAACUCA [hsa-miR-3145-5p]”, the “5+ nucleoli phenotype percent effect” value is reported as 43.6%. With UAUACCUCAGUUUUAUCAGGUG [hsa-miR-875-5p] the “5+ nucleoli phenotype percent effect” value was 32.3%. For CUGGGAGGUGUGAUAUUGUGGU [hsa-miR-3689c], the “5+ nucleoli phenotype percent effect” value was -32.9%. With GAAGACUUCUUGGAUUACAGGGG [hsa-miR-8087] the “5+ nucleoli phenotype percent effect” value was -8.56%. In the case of “CUGGGAGGUCAAGGCUGCAGU [hsa-miR-1273h-5p]”, the “5+ nucleoli phenotype percent effect” value is reported as 11.3%.

What follows are sequences tested on MCF10A (assay: one-nucleolus phenotype percent effect (relative to siNT 0% and siNOL11 100%); higher = more cells with one nucleolus (ribosome biogenesis inhibition)). Details: 20 nM; 72 h.
Protocol: as §1
“CUGCAGCCACUUGGGGAACUGGU [hsa-miR-7156-3p]” was tested, and the “one-nucleolus phenotype percent effect” value was 8.88%. In the case of UCGUGUCCCUCUUGUCCACAG [hsa-miR-6774-3p], the “one-nucleolus phenotype percent effect” value is reported as -27%. In the case of UGUUCCUCUGUCUCCCAGAC [hsa-miR-4326], the “one-nucleolus phenotype percent effect” value is reported as 18.8%. With GUGGCUGCACUCACUUCCUUC [hsa-miR-647] the “one-nucleolus phenotype percent effect” value was 33.1%. For GAGAAAUGCUGGACUAAUCUGC [hsa-miR-5680], the “one-nucleolus phenotype percent effect” value was -20.6%. In the case of CAACAAAUCCCAGUCUACCUAA [hsa-miR-7-2-3p], the “one-nucleolus phenotype percent effect” value is reported as -10.8%. With UCAGCUACUACCUCUAUUAGG [hsa-miR-5690] the “one-nucleolus phenotype percent effect” value was -20.3%. With “AAGUAGUUGGUUUGUAUGAGAUGGUU [hsa-miR-1244]” the “one-nucleolus phenotype percent effect” value was 12.3%. GAAUACGUCUGGUUGAUCC [hsa-miR-6082] was tested, and the “one-nucleolus phenotype percent effect” value was -25.8%. ACAGGCGGCUGUAGCAAUGGGGG [hsa-miR-3937] was tested, and the “one-nucleolus phenotype percent effect” value was 31.6%. For AUGCCUCCCCCGGCCCCGCAG [hsa-miR-6836-3p], the “one-nucleolus phenotype percent effect” value was -8.85%. CUGGCAGGGGGAGAGGUA [hsa-miR-7150] was tested, and the “one-nucleolus phenotype percent effect” value was 46.7%. “UGAGCCCCUGUGCCGCCCCCAG [hsa-miR-1225-3p]” was tested, and the “one-nucleolus phenotype percent effect” value was -16.7%. For UUGUGCUUGAUCUAACCAUGU [hsa-miR-218-5p], the “one-nucleolus phenotype percent effect” value was -8.63%. For UAGCUUAUCAGACUGAUGUUGA [hsa-miR-21-5p], the “one-nucleolus phenotype percent effect” value was -9.39%. For “UACUGCAGACGUGGCAAUCAUG [hsa-miR-509-3-5p]”, the “one-nucleolus phenotype percent effect” value was 26.3%. UCUCUGCUCUGCUCUCCCCAG [hsa-miR-6728-3p] was tested, and the “one-nucleolus phenotype percent effect” value was -7.63%. With CGGGGCCAGAGCAGAGAGC [hsa-miR-6845-5p] the “one-nucleolus phenotype percent effect” value was 9.59%. With UAAGUGCUUCCAUGCUU [hsa-miR-302e] the “one-nucleolus phenotype percent effect” value was -16.8%. For “CAUCUUACUGGGCAGCAUUGGA [hsa-miR-200b-5p]”, the “one-nucleolus phenotype percent effect” value was -11.1%. For GUCCUAGGAGGCUCCUCUG [hsa-miR-5571-3p], the “one-nucleolus phenotype percent effect” value was 6.57%. For GGGAGUGCAGGGCAGGGUUUC [hsa-miR-504-3p], the “one-nucleolus phenotype percent effect” value was 14.7%. With AUAAAGCUAGAUAACCGAAAGU [hsa-miR-9-3p] the “one-nucleolus phenotype percent effect” value was 48.4%. With “CUGGGGGUGGGGGGCUGGGCGU [hsa-miR-6803-5p]” the “one-nucleolus phenotype percent effect” value was -13.5%. In the case of AGGGUAAGCUGAACCUCUGAU [hsa-miR-555], the “one-nucleolus phenotype percent effect” value is reported as 17.6%. With “CACAUAUGAAGUGAGCCAGCAC [hsa-miR-5580-3p]” the “one-nucleolus phenotype percent effect” value was -6.62%. In the case of ACCUCCUGUGUGCAUGGAUUA [hsa-miR-660-3p], the “one-nucleolus phenotype percent effect” value is reported as 16.9%. With AAACAAACAUGGUGCACUUCUU [hsa-miR-495-3p] the “one-nucleolus phenotype percent effect” value was 5.47%. With “AAAAACCACAAUUACUUUUGCACCA [hsa-miR-548t-3p]” the “one-nucleolus phenotype percent effect” value was -19.6%. “CCGGGAGAAGGAGGUGGCCUGG [hsa-miR-6746-5p]” was tested, and the “one-nucleolus phenotype percent effect” value was -15.9%. UACUUGGAAAGGCAUCAGUUG [hsa-miR-890] was tested, and the “one-nucleolus phenotype percent effect” value was 49.1%. In the case of AGCCGCGGGGAUCGCCGAGGG [hsa-miR-3648], the “one-nucleolus phenotype percent effect” value is reported as -17.8%. In the case of AAAGUAGCUGUACCAUUUGC [hsa-miR-562], the “one-nucleolus phenotype percent effect” value is reported as -28.9%. GGUGGGCUUCCCGGAGGG [hsa-miR-4417] was tested, and the “one-nucleolus phenotype percent effect” value was -24.2%. In the case of “UUCCACUGCCACUACCUAAUUU [hsa-miR-6509-3p]”, the “one-nucleolus phenotype percent effect” value is reported as -4.11%. For ACUGGACUUGGAGUCAGGA [hsa-miR-378e], the “one-nucleolus phenotype percent effect” value was 11.5%. For UGAGCCCUGUCCUCCCGCAG [hsa-miR-1233-3p], the “one-nucleolus phenotype percent effect” value was -6.71%. In the case of AGGUGCUCCAGGCUGGCUCACA [hsa-miR-3907], the “one-nucleolus phenotype percent effect” value is reported as 27.7%. “CGGCCCCACGCACCAGGGUAAGA [hsa-miR-874-5p]” was tested, and the “one-nucleolus phenotype percent effect” value was -19.8%. “GAAAUCAAGCGUGGGUGAGACC [hsa-miR-551b-5p]” was tested, and the “one-nucleolus phenotype percent effect” value was -15.5%. With “GUGAGUAGUGGCGCGCGGCGGC [hsa-miR-6869-5p]” the “one-nucleolus phenotype percent effect” value was 12.6%. UUUGGUCCCCUUCAACCAGCUA [hsa-miR-133b] was tested, and the “one-nucleolus phenotype percent effect” value was 16.1%. “UAAAAACUGCAAUUACUUUUA [hsa-miR-548aj-3p]” was tested, and the “one-nucleolus phenotype percent effect” value was -18.5%. “CCCUGCUGCCUUCACCUGCCAG [hsa-miR-6893-3p]” was tested, and the “one-nucleolus phenotype percent effect” value was -5.77%. In the case of AUCUGACCUGAUGAAGGU [hsa-miR-4256], the “one-nucleolus phenotype percent effect” value is reported as 30.3%. “AGUGGCACAUGUUUGUUGUGAG [hsa-miR-891a-3p]” was tested, and the “one-nucleolus phenotype percent effect” value was 35%. For UUCAAGUAAUUCAGGUG [hsa-miR-1297], the “one-nucleolus phenotype percent effect” value was -17.3%. CGUGUUCACAGCGGACCUUGAU [hsa-miR-124-5p] was tested, and the “one-nucleolus phenotype percent effect” value was 6.24%. GCCCUGACCUGUCCUGUUCUG [hsa-miR-4732-3p] was tested, and the “one-nucleolus phenotype percent effect” value was -20.3%. GGAGGCGCAGGCUCGGAAAGGCG [hsa-miR-3197] was tested, and the “one-nucleolus phenotype percent effect” value was -2.74%. UGAUGAUACAGGUGGAGGUAG [hsa-miR-3682-3p] was tested, and the “one-nucleolus phenotype percent effect” value was 19.3%. In the case of “UGUGACUUCUCCCCUGCCACAG [hsa-miR-6820-3p]”, the “one-nucleolus phenotype percent effect” value is reported as 22.3%. For GGUCCAGAGGGGAGAUAGGUUC [hsa-miR-198], the “one-nucleolus phenotype percent effect” value was -9.26%. In the case of AGGUAGAAUGAGGCCUGACAU [hsa-miR-4650-3p], the “one-nucleolus phenotype percent effect” value is reported as 7.9%. For CACAUUACACGGUCGACCUCU [hsa-miR-323a-3p], the “one-nucleolus phenotype percent effect” value was 12.4%. For “AACUCCAAACACUCAAAACUCA [hsa-miR-3145-5p]”, the “one-nucleolus phenotype percent effect” value was -24.6%. UAUACCUCAGUUUUAUCAGGUG [hsa-miR-875-5p] was tested, and the “one-nucleolus phenotype percent effect” value was -18.7%. For CUGGGAGGUGUGAUAUUGUGGU [hsa-miR-3689c], the “one-nucleolus phenotype percent effect” value was 44%. GAAGACUUCUUGGAUUACAGGGG [hsa-miR-8087] was tested, and the “one-nucleolus phenotype percent effect” value was 2.61%. In the case of “CUGGGAGGUCAAGGCUGCAGU [hsa-miR-1273h-5p]”, the “one-nucleolus phenotype percent effect” value is reported as 11.3%.
